Holding throughout (assay): cell-based or functional assay
Assay [1] concerns the target NKCT receptor (truncated TGFβ dominant negative receptor fused to a SynNotch receptor coupled to RELA/p65) (human) (UniProt P37173).
Assay [2] deals with RBDNR receptor (truncated TGFβ dominant negative receptor) (human) (UniProt P37173).
Assay [3] deals with wild-type TGFβRII on untransduced (UT) cord blood-derived NK cells (human) (UniProt P37173).
In assay [4] the target is NKA receptor (truncated TGFβ dominant negative receptor fused to DAP12) (human).
Sequence of NKA receptor (truncated TGFβ dominant negative receptor fused to DAP12) (human) (chain, as listed by the source limits assumed, form in doubt): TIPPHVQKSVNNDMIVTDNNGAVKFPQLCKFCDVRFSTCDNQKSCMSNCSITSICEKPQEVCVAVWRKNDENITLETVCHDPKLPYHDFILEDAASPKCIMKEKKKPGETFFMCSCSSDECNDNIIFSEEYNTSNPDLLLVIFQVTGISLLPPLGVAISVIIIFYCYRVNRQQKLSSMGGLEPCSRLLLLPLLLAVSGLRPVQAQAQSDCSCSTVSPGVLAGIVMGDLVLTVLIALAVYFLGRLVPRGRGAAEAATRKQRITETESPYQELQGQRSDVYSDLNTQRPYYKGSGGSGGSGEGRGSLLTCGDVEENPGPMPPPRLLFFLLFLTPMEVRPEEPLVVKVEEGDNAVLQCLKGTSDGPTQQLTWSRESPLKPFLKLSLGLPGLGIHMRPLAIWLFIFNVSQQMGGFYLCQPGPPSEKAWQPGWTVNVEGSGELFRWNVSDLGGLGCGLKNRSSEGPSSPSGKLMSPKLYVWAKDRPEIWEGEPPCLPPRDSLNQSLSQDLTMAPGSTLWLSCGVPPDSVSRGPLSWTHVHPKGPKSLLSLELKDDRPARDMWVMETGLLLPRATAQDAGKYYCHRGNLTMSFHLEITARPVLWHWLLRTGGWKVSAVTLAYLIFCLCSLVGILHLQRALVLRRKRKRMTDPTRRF

Protection from TGFβ-impaired cytolytic activity in vitro (TGFβ concentration and phosphorylated Smad2/3 (Ser465/467) by flow cytometry in untransduced NK cells, 1 hour after 10 ng/mL TGFβ data for one substance are collected here from patent publication US20230210897A1.

Some results are limits rather than exact numbers.

With TGFβ (ligand), the protection from TGFβ-impaired cytolytic activity in vitro (TGFβ concentration at which protection is lost) in assay [1], in assay [2] and in assay [4] was over 50 ng/mL throughout. The same substance had a phosphorylated Smad2/3 (Ser465/467) by flow cytometry in untransduced NK cells, 1 hour after 10 ng/mL TGFβ in assay [3] of 73.9%.
